The record followed here is patent US20130196915, “AFFINITY HYDROGELS FOR CONTROLLED PROTEIN RELEASE” (published 2013).

The target of series [1] is T1, PDGF-BB (Homo sapiens, UniProt P01127 P01127:82-190). The experiment in a line: SPR; COs did not significantly accelerate dissociation; koff only in figure. Particulars: tags: R&D Systems; amine-coupled to SPR chip; chain copies: 2 (inferred, homodimer); three-stem junction. For orientation: Surface plasmon resonance follows binding to a sensor surface in real time, without labels.
T1 sequence (P01127 82-190, one chain of several): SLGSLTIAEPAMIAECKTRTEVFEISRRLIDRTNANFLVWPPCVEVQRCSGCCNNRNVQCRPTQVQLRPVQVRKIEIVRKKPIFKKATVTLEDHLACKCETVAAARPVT

For series [2], the target named is T1, PDGF-BB. Briefly: SPR; PBS, 0.05% Tween 20. As to conditions: tags: R&D Systems, amine-coupled to SPR chip, chain copies: 2 (inferred, homodimer). On the procedure: The molecular interaction between PDGF-BB and the aptamers were studied by SPR spectrometry (SR7000DC, Reichert Analytical Instrument, Depew, N.Y.). PDGF-BB was immobilized onto a sensor chip via amide synthesis. An aqueous solution of NHS (0.0115 g/ml) and EDC (0.038 g/ml) was flowed over the sensor chip at a flow rate of 30 μL/min. After the EDC/NHS-mediated activation of the biochip surface for 10 min, 10 μg/mL of PDGF-BB solution (pH 8.5) was flowed over the chip surface for protein immobilization. Prior to the molecular recognition analysis, the sensor chip was equilibrated for 30 min with a phosphate-buffered saline (PBS) solution containing 0 05% Tween 20. During the binding analysis, 500 nM of binding solution containing either anti-PDGF-BB aptamer or its control was flowed over the biochip at 30 μL/min. The biochip was regenerated with 1 M of NaCl. The binding analysis was repeated twice to confirm the reproducibility. The equilibrium dissociation constant (KD) was calculated with direct curve fitting of the sensorgrams using the software provided by the manufacturer.
Polyacrylamide gel and anti-platelet-derived growth factor-BB (PDGF-BB) aptamer were used as a model system. […] The binding functionality was evaluated with surface plasmon resonance (SPR) analysis, which directly provides information on the binding affinity.

In series [3] the target is T1, PDGF-BB. The experiment in a line: SPR; virtually same as S1. As to conditions: tags: R&D Systems; amine-coupled to SPR chip; chain copies: 2 (inferred, homodimer). The method, then: (§1) The affinities of the aptamers were measured with surface plasmon resonance (SPR) spectrometry (SR7000DC, Reichert Analytical Instrument, Depew, N.Y.). Carboxyl group-functionalized sensor chips were purchased from the Reichert Analytical Instrument. The chips were initially activated with 0.2 M EDC/0.1 M NHS for 10 min After the activation step, PDGF-BB (20 μg/ml in 25 mM Na₂HPO₄ at pH 8.5) was flowed over the activated sensor chip for protein immobilization. Before the test, the system was equilibrated with the running buffer for 30 min. The running buffer was made of PBS buffer (pH 7.4) containing 0.05% Tween 20. During the test, the aptamer solution was flowed over the sensor chip at a flow rate of 30 μL/minute for 5 minutes. Subsequently, the flowing solution was switched to the running buffer for molecular dissociation. After each test, the sensor chip was regenerated by flowing 1 M NaCl in the channel for 2 minutes and then washed with the running buffer. To determine the dissociation constants, a series of aptamer solutions were prepared with the concentration ranging from 3.13 to 200 nM. The data were processed with the Scrubber 2.0 software (BioLogic Software, Australia). The responses from the reference channel were subtracted from the responses from analyte channel before data analysis to minimize the effects of reflective index changes, nonspecific binding, and instrument drift. The dissociation constant (KD) was determined by fitting the data to a simple biomolecular “1:1 binding” model.

Series [4] has as its target T1, PDGF-BB. The experiment in a line: SPR; PBS with 500 nM scrambled CO during dissociation. Particulars: tags: R&D Systems; amine-coupled to SPR chip; chain copies: 2 (inferred, homodimer). The method, then:
The molecular interaction between the PDGF-BB and its aptamer was studied using the SPR spectrometry (SR7000DC; Reichert Analytical Instrument; Depew, N.Y.). A carboxyl group-functionalized sensor chip (Reichert Analytical Instrument; Depew, N.Y.) was activated with NHS and EDC for PDGF-BB immobilization. The binding solution of 100 nM of either anti-PDGF-BB aptamers or scrambled aptamers was flowed over the biochip for 5 minutes (30 μL/min) for the analysis of molecular association. Subsequently, the washing solution (PBS, PBS containing 500 nM of CO, or PBS containing 500 nM of S—CO) was introduced over the biochip for another five minutes (30 μL/min) for the analysis of molecular dissociation. The biochip was regenerated by flowing 1 M of NaCl in the channel for two minutes (100 μL/min) followed by the PBS. The dissociation rate constant (koff) was obtained by fitting the binding profiles with the Scrubber 2.0 software as provided by the manufacturer.
Because real applications were involve not only aptamers and COs, but also target proteins, surface plasmon resonance (SPR) was used to directly examine the intermolecular hybridization-mediated protein dissociation (FIG. 11).

In series [5] the target is T1, PDGF-BB. The experiment in a line: SPR; PBS pH 7.4, 0.05% Tween 20; equilibrium analysis. As to conditions: tags: R&D Systems; amine-coupled to SPR chip; chain copies: 2 (inferred, homodimer). On the procedure: as §1
The interaction of a molecular pair was determined by not only molecular association but also molecular dissociation. The dissociation rate constant divided by the association rate constant is defined as the equilibrium dissociation constant (KD). Thus, a series of aptamer solutions were prepared and the aptamer-protein interactions were characterized by calculating the dissociation constants (FIG. 19). The concentration-dependent responses were processed to calculate KD using an equilibrium analysis. […]

Series [6] addresses T1, PDGF-BB. The experiment in a line: SPR; reference for normalized response; PBS pH 7.4, 0.05% Tween 20. As to conditions: tags: R&D Systems; amine-coupled to SPR chip; chain copies: 2 (inferred, homodimer); three-stem junction with 10-nt 5' tail. On the procedure: The affinities of the aptamers were measured with surface plasmon resonance (SPR) spectrometry (SR7000DC, Reichert Analytical Instrument, Depew, N.Y.). Carboxyl group-functionalized sensor chips were purchased from the Reichert Analytical Instrument. The chips were initially activated with 0.2 M EDC/0.1 M NHS for 10 min After the activation step, PDGF-BB (20 μg/ml in 25 mM Na₂HPO₄ at pH 8.5) was flowed over the activated sensor chip for protein immobilization. Before the test, the system was equilibrated with the running buffer for 30 min. The running buffer was made of PBS buffer (pH 7.4) containing 0.05% Tween 20. During the test, the aptamer solution was flowed over the sensor chip at a flow rate of 30 μL/minute for 5 minutes. Subsequently, the flowing solution was switched to the running buffer for molecular dissociation. After each test, the sensor chip was regenerated by flowing 1 M NaCl in the channel for 2 minutes and then washed with the running buffer. To determine the dissociation constants, a series of aptamer solutions were prepared with the concentration ranging from 3.13 to 200 nM. The data were processed with the Scrubber 2.0 software (BioLogic Software, Australia). […] The dissociation constant (KD) was determined by fitting the data to a simple biomolecular “1:1 binding” model.

Regarding ACAGGCTACGGCACGTAGAGCATCACCATGATCCTG (ssDNA) [36-nt truncated aptamer], in the series with PDGF-BB [1], the binding result was “binds”.

As to GCGATACTCCACAGCTGACGGCACGGTAAGCATCACCATGATGTCC (ssDNA, 5'-Acrydite) [control (lower-affinity) aptamer], the affinity in the series with PDGF-BB [2], expressed as Kd, was 220 nM.

For the molecule CATGAGCCCTACAGGCTACGGCACGTAGAGCATCACCATGATCCTG (ssDNA) [S10], the binding result with PDGF-BB [3] is “binds”.

With GCAACTGCTCACAGGCTACGGCACGTAGAGCATCACCATGATCCTG (ssDNA) [S9], in the series with PDGF-BB [3], the binding result is given as “binds”.

As for CGCCATTCAGACAGGCTACGGCACGTAGAGCATCACCATGATCCTG (ssDNA) [S4], the binding result in the series with PDGF-BB [3] is “binds”.

B1: 61-nt anti-PDGF-BB aptamer (ssDNA)
DNA: AAAAAAAAAAACAGGCTACGGCACGTAGAGCATCACCATGATCCTGTGACTTGAGCAAAAT
modifications: 5'-NH2
For B1, the koff – broadly, a measure of how fast the partners let go of each other – in the series with PDGF-BB [4] turned out to be 0.00065 s⁻¹.

As for TCGCACATGCACAGGCTACGGCACGTAGAGCATCACCATGATCCTG (ssDNA) [S6], in the series with PDGF-BB [3], the binding result was “binds”.

For CAATTCCGCGACAGGCTACGGCACGTAGAGCATCACCATGATCCTG (ssDNA) [S2], in the series with PDGF-BB [3], the binding result is listed as “binds”.

Regarding CCACGGTCTAACAGGCTACGGCACGTAGAGCATCACCATGATCCTG (ssDNA) [S3], the binding result in the series with PDGF-BB [3] is recorded as “binds”.

With GCGATACTCCACAGGCTACGGCACGTAGAGCATCACCATGATCCTG (ssDNA, 5'-Acrydite) [anti-PDGF-BB aptamer (higher affinity, 46-nt)], in the series with PDGF-BB [2] (three-stem junction with 10-nt 5' tail), the Kd (in general, the equilibrium constant for the complex coming apart) turned out to be 25 nM.

For GCGATACTCCACAGGCTACGGCACGTAGAGCATCACCATGATCTCA (ssDNA) [M3], in the series with PDGF-BB [5], the Kd was determined as 354 nM.

With GCGATACTCCACAGGCTACGGCACGTAGAGCATCACCATGATCCCA (ssDNA) [M2], the Kd in the series with PDGF-BB [5] was found to be 109 nM.

For GCGATACTCCACAGGCTACGGCACGTAGAGCATCACCATGATCCTA (ssDNA) [M1], the Kd with PDGF-BB [5] is 27.6 nM.

In the case of GCGATACTCCACAGGCTACGGCACGTAGAGCATCACCATGATCCTG (ssDNA) [S1], the binding result with PDGF-BB [6] is on record as “binds”.
